Measured values reported in patent US12760268, “Compositions and methods related to transferrin receptor-binding aptamers” (University of Washington).

Tests used:
[1] = target: T1, Transferrin receptor 1 (TfR1, CD71) (Homo sapiens, UniProt P02786 SEQ:89-760); experiment: BLI; no appreciable binding, single concentration; settings: tags: biotinylated, ACROBiosystems TfR-H82E5, immobilized on streptavidin biosensor; chain copies: 2; label: 5'-FAM
[2] = target: T2, Transferrin receptor 1 (TfR1, CD71), endogenous on cells (Homo sapiens, UniProt P02786 SEQ:89-760); experiment: flow; activated CD4+ T cells, apparent Kd, 4 C; settings: chain copies: 2 (stated homodimer); label: biotin; 3' 8-nt toehold overhang, redesigned stem
[3] = target: T2, Transferrin receptor 1 (TfR1, CD71), …; experiment: flow; activated CD8+ T cells, apparent Kd, 4 C; settings: chain copies: 2 (stated homodimer); label: biotin; 3' 8-nt toehold overhang, redesigned stem
[4] = target: T2, Transferrin receptor 1 (TfR1, CD71), …; experiment: flow; Jurkat cells, apparent Kd, 4 C; settings: chain copies: 2 (stated homodimer)
[5] = target: T1, Transferrin receptor 1 (TfR1, CD71); experiment: BLI; 25 C, 5.5 mM Mg, 1:1 fit; settings: tags: biotinylated, ACROBiosystems TfR-H82E5, immobilized on streptavidin biosensor, chain copies: 2
[6] = target: T2, Transferrin receptor 1 (TfR1, CD71), …; experiment: flow; H9 cells, apparent Kd, 4 C; settings: chain copies: 2 (stated homodimer); label: 5'-FAM or 5'-Cy5; multi-hairpin with extended stem
[7] = target: T3, Cellular nucleic acid-binding protein (CNBP, ZNF9) (Homo sapiens, UniProt P62633 P62633:1-177); experiment: BLI; settings: tags: His-tag, Novus Biologicals NBP2-22742, immobilized on Ni-NTA biosensor
[8] = target: T1, Transferrin receptor 1 (TfR1, CD71); experiment: BLI; negative control; settings: tags: biotinylated, ACROBiosystems TfR-H82E5, immobilized on streptavidin biosensor; chain copies: 2; label: 5'-FAM, 5'-Cy5 or 5'-biotin
[9] = target: Transferrin receptor 1 (mTfR1) (Mus musculus, UniProt Q62351 SEQ:89-763); experiment: BLI; 200 nM mTfR1 over immobilized biotinylated aptamer; settings: tags: His-tag, Sino Biological 50741-M07H; chain copies: 2; label: 5'-FAM (with added 5' T), 5'-Cy5 or 5'-biotin; multi-hairpin on stem; G-quadruplex predicted
[10] = target: T3, Cellular nucleic acid-binding protein …; experiment: BLI; 2:1 heterogeneous ligand fit, first Kd; off-target; settings: tags: His-tag, Novus Biologicals NBP2-22742, immobilized on Ni-NTA biosensor; label: 5'-FAM (with added 5' T), 5'-Cy5 or 5'-biotin; multi-hairpin on stem; G-quadruplex predicted
[11] = target: T1, Transferrin receptor 1 (TfR1, CD71); experiment: BLI; 25 C, 5.5 mM Mg, 1:1 fit; tRNA and salmon sperm DNA present; settings: tags: biotinylated, ACROBiosystems TfR-H82E5, immobilized on streptavidin biosensor; chain copies: 2; label: 5'-FAM (with added 5' T), 5'-Cy5 or 5'-biotin; multi-hairpin on stem; G-quadruplex predicted
[12] = target: T2, Transferrin receptor 1 (TfR1, CD71), …; experiment: flow; Jurkat cells, apparent Kd, 4 C; TfR1-independent component present; settings: chain copies: 2 (stated homodimer); label: 5'-FAM (with added 5' T), 5'-Cy5 or 5'-biotin; multi-hairpin on stem; G-quadruplex predicted
[13] = target: T3, Cellular nucleic acid-binding protein …; experiment: BLI; 2:1 heterogeneous ligand fit, second Kd; off-target; settings: tags: His-tag, Novus Biologicals NBP2-22742, immobilized on Ni-NTA biosensor; label: 5'-FAM (with added 5' T), 5'-Cy5 or 5'-biotin; multi-hairpin on stem; G-quadruplex predicted
[14] = target: T2, Transferrin receptor 1 (TfR1, CD71), …; experiment: flow; H9 cells, apparent Kd (+/-13.0), 4 C; settings: chain copies: 2 (stated homodimer); label: 5'-FAM (with added 5' T), 5'-Cy5 or 5'-biotin; multi-hairpin on stem; G-quadruplex predicted
[15] = target: T2, Transferrin receptor 1 (TfR1, CD71), …; experiment: flow; H9 cells, apparent Kd (+/-0.2), 4 C; settings: chain copies: 2 (stated homodimer); label: 5'-FAM, 5'-Cy5 or 5'-biotin; hairpin
[16] = label: 5'-FAM, 5'-Cy5 or 5'-biotin, hairpin

T1 sequence (P02786 89-760): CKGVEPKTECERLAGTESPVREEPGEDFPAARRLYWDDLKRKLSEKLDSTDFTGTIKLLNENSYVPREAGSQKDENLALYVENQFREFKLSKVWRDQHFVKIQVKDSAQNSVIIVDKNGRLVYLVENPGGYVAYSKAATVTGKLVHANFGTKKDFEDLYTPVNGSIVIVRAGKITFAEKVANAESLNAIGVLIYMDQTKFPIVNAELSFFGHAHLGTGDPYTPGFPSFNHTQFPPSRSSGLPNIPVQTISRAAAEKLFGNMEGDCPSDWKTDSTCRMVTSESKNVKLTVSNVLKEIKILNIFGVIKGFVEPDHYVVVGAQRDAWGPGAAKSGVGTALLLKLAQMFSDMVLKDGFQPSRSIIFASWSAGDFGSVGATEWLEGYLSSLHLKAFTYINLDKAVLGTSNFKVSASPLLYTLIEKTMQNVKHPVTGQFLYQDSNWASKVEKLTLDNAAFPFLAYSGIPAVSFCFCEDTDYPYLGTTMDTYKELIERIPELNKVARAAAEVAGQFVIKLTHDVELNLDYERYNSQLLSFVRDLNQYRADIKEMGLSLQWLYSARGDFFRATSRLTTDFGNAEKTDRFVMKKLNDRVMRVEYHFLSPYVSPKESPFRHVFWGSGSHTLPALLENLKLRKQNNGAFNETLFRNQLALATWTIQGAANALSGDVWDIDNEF
T2 sequence (P02786 89-760): as above
T3 sequence (P62633 whole entry, one chain of several): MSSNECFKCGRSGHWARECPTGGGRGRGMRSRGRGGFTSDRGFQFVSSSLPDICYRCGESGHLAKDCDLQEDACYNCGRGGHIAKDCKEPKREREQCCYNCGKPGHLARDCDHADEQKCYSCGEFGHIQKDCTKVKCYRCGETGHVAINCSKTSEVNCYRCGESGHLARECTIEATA
Transferrin receptor 1 (mTfR1), sequence (Q62351 89-763): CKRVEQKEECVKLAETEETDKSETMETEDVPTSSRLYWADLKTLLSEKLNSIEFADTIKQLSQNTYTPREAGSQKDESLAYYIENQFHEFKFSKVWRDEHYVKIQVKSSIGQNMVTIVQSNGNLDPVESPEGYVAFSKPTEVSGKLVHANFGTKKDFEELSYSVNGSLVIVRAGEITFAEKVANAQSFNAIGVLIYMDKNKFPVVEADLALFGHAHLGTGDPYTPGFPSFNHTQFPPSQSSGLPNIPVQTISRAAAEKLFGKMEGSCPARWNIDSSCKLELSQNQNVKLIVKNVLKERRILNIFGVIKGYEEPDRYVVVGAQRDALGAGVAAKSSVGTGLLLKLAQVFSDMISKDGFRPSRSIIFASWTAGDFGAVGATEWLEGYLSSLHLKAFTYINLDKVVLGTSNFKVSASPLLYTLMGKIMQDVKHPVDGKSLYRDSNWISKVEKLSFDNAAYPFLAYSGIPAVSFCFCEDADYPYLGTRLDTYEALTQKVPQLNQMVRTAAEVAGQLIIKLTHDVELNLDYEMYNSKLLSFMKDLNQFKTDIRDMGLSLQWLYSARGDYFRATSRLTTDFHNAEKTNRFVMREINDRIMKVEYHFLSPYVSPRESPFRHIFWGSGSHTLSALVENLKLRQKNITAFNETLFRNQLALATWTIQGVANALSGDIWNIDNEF

B1: JBA8.4 (ssDNA)
DNA: ATCCAGAGTGACGCAGCAACCCAAACCACCAGCCGGGGATGCAAACACCGCACAGGGAACGGCTGGACACGGTGGCTTAGT
B1: no binding [1].

B2: rvCD71apt (JBA1.2) (ssDNA)
DNA: GGAGTCACACGCATTAGCGTAAAGGGGGTGTTTGTGCGGTGTGGAGTGCGCGTGCTAATGCTGGAGTGTTTCCCAGGACCC
In the case of B2, the Kd [2] is reported as 28.5 nM, the Kd [3] is reported as 35 nM and the Kd ([4]; label: biotin, 3' 8-nt toehold overhang, redesigned stem) is reported as 35.2 nM.

B3: JBA8.11 (ssDNA)
DNA: ATCCAGAGTGACGCAGCAGCCGGTCGCAGATGCAAATGCCCGACAGGGGGACGCGGGCTGCCATGGACACGGTGGCTTAGT
B3: no binding [1].

B4: JBA8.26 (ssDNA)
DNA: ATCCAGAGTGACGCAGCAGCGTAAAGGGGGTGTTTGTGCGGTGTGGAGTGCGCGCGCTGCTGCTGGACACGGTGGCTTAGT
B4 gave a Kd ([5]; label: 5'-FAM or 5'-Cy5, multi-hairpin with extended stem) of 6.87 nM and a Kd [6] of 3.3 nM.

B5: JBA8.1 (ssDNA)
DNA: ATCCAGAGTGACGCAGCAGCGTAAAGGGGGTGTTTGTGCGGTGTGGAGTGCGCGTGCTGCTGCTGGACACGGTGGCTTAGT
In the case of B5, the Kd ([4]; label: 5'-FAM or 5'-Cy5, multi-hairpin on stem, G-quadruplex predicted) is reported as 5.5 nM.

B6: JBA8.15 (ssDNA)
DNA: ATCCAGAGTGACGCAGCACTCTCGGGGGGTAGGTGGGAAGGGGGCCGCCCCCTGGGTTAGGCTTGGACACGGTGGCTTAGT
B6: no binding [1].

B7: JBA8.3 (ssDNA)
DNA: ATCCAGAGTGACGCAGCAGGGGCCGCGGATGCAAACGCCCGATAGGGGGACGGCACTGGAGCTTGGACACGGTGGCTTAGT
B7: no binding [1].

B8: RANL (ssDNA)
DNA: ATCCAGAGTGACGCAGCAAATTCCAAACTCGAGTAAGCGTAGAGCCTCTCATCGCCTCAATAATGGACACGGTGGCTTAGT
B8: no binding ([7]; label: 5'-FAM, 5'-Cy5 or 5'-biotin); no binding [8].

B9: tJBA8.1 (ssDNA)
DNA: GCAGCAGCGTAAAGGGGGTGTTTGTGCGGTGTGGAGTGCGCGTGCTGCTGC
B9 was tested, and the binding result [9] was “no binding”, the Kd [10] was 1.85 nM and the Kd [11] was 25.1 nM. It also gave a Kd [12] of 10.9 nM, a Kd [13] of 8.07 nM and a Kd [14] of 25.6 nM.

B10: tJBA8.1 GGAGG (ssDNA)
DNA: GCAGCAGCGTAAAGGAGGTGTTTGTGCGGTGTGGAGTGCGCGTGCTGCTGC
B10: no binding [7].

B11: tJBA8.1 GGGGC (ssDNA)
DNA: GCAGCAGCGTAAAGGGGCTGTTTGTGCGGTGTGGAGTGCGCGTGCTGCTGC
B11: no binding [7].

B12: tJBA8.1 GGGAG (ssDNA)
DNA: GCAGCAGCGTAAAGGGAGTGTTTGTGCGGTGTGGAGTGCGCGTGCTGCTGC
B12: no binding [7].

B13: XQ-2d (ssDNA)
DNA: ACTCATAGGGTTAGGGGCTGCTGGCCAGATACTCAGATGGTAGGGTTACTATGAGC
B13 was tested, and the Kd [5, 16] was 14.4 nM, the Kd [15] was 2.2 nM and the binding result [7, 16] was “no binding”.

B14: JBA8.7 (ssDNA)
DNA: ATCCAGAGTGACGCAGCAACCACAGATGCAAATGCGCGAGAGCGGGACGGTTTGCTAGGCTCATGGACACGGTGGCTTAGT
B14: no binding [1].
